Data published in patent US20240190918A1, “FIBRIL PEPTIDES” (Universität Ulm, priority 2021, published 2024).
“Also recorded” adds a separate entry of the source. Peptide text beside a SMILES is read from it.

Legend:
Fibril stability by UPLC = type: physicochemical; settings: 2 mg/ml; 10 min, 1 h, 24 h, 10 d at RT or 37° C.
Protocol: Fibrils were generated by dissolving lyophilized peptides in DMSO to 10 mg/ml followed by adding PBS to receive a final concentration of 2 mg/ml. Fibril stocks were incubated at room temperature (RT) and 37° C. and after 10 min, 1 h, 24 h and 10 days stability assays using ultra performance liquid chromatography (UPLC) with a reverse phase column was performed in collaboration with the Core Facility Functional Peptidomics (Ulm University). Shown is one individual experiment.
Since the stability of pharmaceutical products must be ensured during application (Grassi et al., 2019), we analyzed the stability of RM-8, which contains a C-terminal methionine, an amino acid sensitive to oxidation, by ultra performance liquid chromatography (UPLC). To that end, RM-8 nanofibrils were incubated for 10 min, 1 h, 24 h or 10 d at room temperature (RT) of 37° C. followed by UPLC analysis.

[1] = tested on: Human CD4+ and CD8+ T cells; assay: Viability of transduced human T cells, trypan blue staining; type: cell-based; settings: 7 days
Protocol: FIG. 10: RM-8 nanofibrils enhance GALV-γ-RV transduction of T cells. […] GFP expression of CD3+ cells was analyzed by flow cytometry. Viability was determined by trypan blue staining. Human CD4+ and CD8+ T cells were isolated from Buffy coats of two donors. Indicated transduction enhancers were incubated with GAL V-γ-RV and then the mix was used to transduce T cells. Shown are average values (±SD). SD, standard deviation.
For the CAR T cell like process human CD4+ and CD8+ T cells were isolated from Buffy coats of two donors using RosetteSep™ Human CD4+ and CD8+ T Cell Enrichment Cocktail (STEMCELL Technologies) according to manufacturer's protocol. Isolated T cells were activated using Dynabeads™ Human T-Activator CD3/CD28 (Gibco™) according to manufacturer's protocol for three days in presence of 10 ng/ml interleukin-2 (IL-2). After 3 days the magnetic Dynabeads were removed using a magnet and T cells were cultured in presence of 9 ng/ml interleukin-7 (IL-7) and 10 ng/ml interleukin-15 (IL-15). After 1 day T cells were transduced with GALV-γ-RV using the transduction enhancers RM-8 (50 μg/ml), Vectofusin®-1 (10 μg/ml), or RetroNectin (20 μg/ml). […] After 7 days the transduced T cells were analyzed by flow cytometry.

R5-tropic HIV-1 = assay: HIV-1 infection of TZM-bl cells, Tat-inducible β-galactosidase activity; settings: 3 days; for n-fold enhancement of HIV-1 infection: virus treated with 150 μg/ml peptide
Protocol: HIV-1 was produced from pBRNL4.39-92TH14, a plasmid containing a CCR5 tropic molecular HIV-1 clone (Papkalla et al., 2002). Infectious HIV-1 stocks were prepared by transfection of 293T cells by calcium phosphate transfection and HIV-1 infection of TZM-bl cells was determined by detecting cellular β-galactosidase activity.
To determine the effect on HIV-1 infection, stocks of the CCR5 tropic HIV-1 were generated by transient transduction of 293T cells with proviral DNA and harvested 2 days later. The HIV-1 stock was titrated and a dilution factor of 125 was chosen for infection of TZM-bl cells to reach a maximal infection enhancement. HIV-1 virus was added to serially diluted IL-18 peptides and mixtures were used to infect TZM-bl cells which contain the reporter gene β-galacosidase under the control of the HIV-1-LTR promoter (Wei et al., 2002).

[2] = Thioflavin T (ThT) fluorescence, fibril formation; type: physicochemical; settings: peptide 2 mg/ml in PBS, RT 10 min; 'except for' = no ThT signal detected
Source text: The fibril peptide has the activity of forming fibrils in an aqueous solution, the term “fibril” relating to any threadlike structure or filament comprising, preferably consisting of, a multitude of fibril peptides; preferably, the fibrils are nanofibrils, i.e. have a diameter of from 2 to 20 nm, and/or a length of from 100 nm to 10 μm, preferably of from 100 nm to 5 μm. Preferably, aggregation of fibril peptides occurs spontaneously in aqueous solution, wherein an aqueous solution is a solution comprising at most 28% (v/v), preferably at most 15% (v/v), more preferably at most 10% (v/v), still more preferably at most 5% (v/v), most preferably at most 2% (v/v), organic solvents. Methods for determining the activity of forming fibrils are known to the skilled person and are shown herein in the Examples. Preferably, the activity of forming fibrils is determined by a Thioflavin T binding assay as specified herein in the Examples. The activity of forming fibrils may, however, also be determined by Transmission electron microscopy (TEM), Congo Red staining, measurement of conversion rate, and/or Fourier transform infrared (FTIR) spectroscopy; the aforesaid methods are known in the art.
The peptides were solved in HFIP (1,1,1,3,3,3-Hexafluoro-2-propanol) and were sonicated using an Ultrasonic cleaner. The peptides were stored at −20° C. and for each experiment they were freshly dissolved in DMSO to 10 mg/ml; to generate fibrils, the peptides were diluted in PBS to get 2 mg/ml or 1 mg/ml and incubated for 10 min at room temperature (RT).
The lyophilized RM-8 and its derivatives (Peptides 1-42) were solved in DMSO to 10 mg/ml and stored at 4° C. For each experiment they were freshly solved in PBS to 2 mg/ml and incubated for 10 min at RT.
(§1) Peptides derived from human interleukin-18 were identified by an in silico-screening approach where the human protein interleukin-18 (Q14116) was analyzed by the amyloid prediction tools ZipperDB, TANGO 2.0 and PASTA (FIG. 1A). To examine if these endogenous peptides form nanofibrils, the freshly prepared peptides were incubated with the amyloid specific dye Thioflavin T (ThT), which fluorescence increases upon binding to amyloid fibrils. […] To determine if the IL-18 peptides have the ability to form positively charged fibrils the zeta potential was measured.

[3] = Zeta potential of peptide nanofibrils; type: physicochemical; settings: peptides incubated at RT for 10 min
Protocol: FIG. 1: Human interleukin-18 (IL-18) derived peptides form nanofibrils. (A) Table displaying sequences, physical and chemical parameters of peptides derived from IL-18. The positively charged amino acids are written in italics. (B) ThT fluorescence of the tested peptides and EF-C (Protransduzin®-A) which were incubated at RT for 10 min. (C) Zeta potential of peptides which were incubated at RT for 10 min. Shown are average values (±SD) of duplicates from two independent experiments. (D-J) Transmission electron microscopy images of EF-C (D), RK-10 (E-F), RM-8 (G-H), RS-7 (I), and FK-7 (J). […]
FIG. 5: RM-8 analogs from alanine scanning form positively charged nanofibrils. […] (B) ThT fluorescence of alanine scanning derived peptides, RM-8, QH-9 and EF-C. […]
as §1

Molecule: CC[C@H](C)[C@H](NC(=O)[C@H](Cc1ccccc1)NC(=O)[C@@H](NC(=O)[C@@H](NC(=O)[C@@H](N)CCCNC(=N)N)[C@@H](C)O)[C@@H](C)CC)C(=O)N[C@H](C(=O)N[C@@H](CO)C(=O)N[C@@H](CCSC)C(=O)O)[C@@H](C)CC [RM-8, RTIFIISM] (H-RTIFIISM-OH)
- stability of nanofibrils (UPLC) (Fibril stability by UPLC): stable for 10 days; also recorded: stable over time
- cytotoxicity on T cells [1]: without showing cytotoxicity; also recorded: not showing cytotoxicity

Molecule: FK-7: peptide derived from human interleukin-18; sequence only in FIG. 1A (FIISMYK; Peptide FK-7)
- n-fold enhancement of HIV-1 infection (R5-tropic HIV-1): weak or no effects

Molecule: RS-7: peptide derived from human interleukin-18; sequence only in FIG. 1A (RTIFIIS; Peptide RS-7)
- n-fold enhancement of HIV-1 infection (R5-tropic HIV-1): weak or no effects

Molecule: RS-12: peptide derived from human interleukin-18; sequence only in FIG. 1A (RDNAPRTIFIIS; Peptide RS-12)
- n-fold enhancement of HIV-1 infection (R5-tropic HIV-1): weak or no effects

Molecule: RTIAIISM (fibril peptide 20) [Peptide A4, RM-8 analog from alanine scanning]
- ThT signal (fibril formation) [2]: except for

Molecule: RTIFGISM (Peptide 18)
- ThT signal (fibril formation) [2]: except for

Molecule: RTIFIISA (fibril peptide 24) [Peptide A8, RM-8 analog from alanine scanning]
- ThT signal (fibril formation) [2]: except for

Molecule: RTIFIISMYK (fibril peptide 34) [RK-10]
- zeta potential (sign) [3]: positive zeta potential
- enhancement of HIV-1 infection (in words) (R5-tropic HIV-1; serially diluted peptides): dose-dependably enhancement

Molecule: RTIFIKSM (Peptide 26)
- ThT signal (fibril formation) [2]: except for

Molecule: RTIFIRSM (Peptide 25)
- ThT signal (fibril formation) [2]: except for

Molecule: RTIPIISM (Peptide 17)
- ThT signal (fibril formation) [2]: except for
